Measurements from publication PMC2860068 (DNA repair, 2010).

Legend:
[1] = target: T1, hMSH6 (recombinant, subunit of purified hMutSα) (human, UniProt P52701 1-1360); assay: far-Western
[2] = target: hMSH3 (recombinant, subunit of purified hMutSβ) (human, UniProt P20585 1-1137); assay: far-Western
[3] = target: T1, hMSH6 (recombinant, subunit of purified …); assay: pull-down

T1 sequence (P52701 whole entry): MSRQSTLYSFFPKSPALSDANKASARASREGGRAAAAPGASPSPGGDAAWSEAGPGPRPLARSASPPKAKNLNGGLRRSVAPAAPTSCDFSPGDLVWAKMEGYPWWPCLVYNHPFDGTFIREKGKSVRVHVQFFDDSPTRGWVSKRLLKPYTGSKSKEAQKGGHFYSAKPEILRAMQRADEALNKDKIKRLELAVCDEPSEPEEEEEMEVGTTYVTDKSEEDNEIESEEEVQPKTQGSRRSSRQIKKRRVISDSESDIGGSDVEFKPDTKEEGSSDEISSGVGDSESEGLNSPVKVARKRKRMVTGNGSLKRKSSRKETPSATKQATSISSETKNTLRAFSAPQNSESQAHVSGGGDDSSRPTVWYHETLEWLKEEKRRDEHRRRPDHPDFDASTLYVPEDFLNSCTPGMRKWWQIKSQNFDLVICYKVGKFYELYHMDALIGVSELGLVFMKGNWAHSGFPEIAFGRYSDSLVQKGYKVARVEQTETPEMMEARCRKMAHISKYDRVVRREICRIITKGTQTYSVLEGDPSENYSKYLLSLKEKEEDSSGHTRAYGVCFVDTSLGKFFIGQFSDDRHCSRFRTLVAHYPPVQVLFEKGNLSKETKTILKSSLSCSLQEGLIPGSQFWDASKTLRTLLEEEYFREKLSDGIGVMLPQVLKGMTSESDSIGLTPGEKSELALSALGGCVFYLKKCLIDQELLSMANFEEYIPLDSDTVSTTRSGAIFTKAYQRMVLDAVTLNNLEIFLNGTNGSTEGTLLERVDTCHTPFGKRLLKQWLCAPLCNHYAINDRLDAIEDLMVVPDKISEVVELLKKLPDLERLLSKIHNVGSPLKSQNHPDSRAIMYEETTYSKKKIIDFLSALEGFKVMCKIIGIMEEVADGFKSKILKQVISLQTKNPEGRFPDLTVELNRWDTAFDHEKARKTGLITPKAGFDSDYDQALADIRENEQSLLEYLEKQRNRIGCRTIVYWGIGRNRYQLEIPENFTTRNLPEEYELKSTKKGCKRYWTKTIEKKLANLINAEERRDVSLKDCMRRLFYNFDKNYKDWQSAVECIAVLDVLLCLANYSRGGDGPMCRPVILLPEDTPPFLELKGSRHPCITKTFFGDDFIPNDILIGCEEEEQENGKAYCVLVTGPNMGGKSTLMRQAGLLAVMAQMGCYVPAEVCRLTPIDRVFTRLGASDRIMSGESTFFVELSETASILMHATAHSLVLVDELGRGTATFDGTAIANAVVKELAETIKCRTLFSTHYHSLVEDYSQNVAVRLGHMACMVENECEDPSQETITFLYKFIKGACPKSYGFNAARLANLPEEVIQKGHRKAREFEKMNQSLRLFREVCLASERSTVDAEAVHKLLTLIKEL
Sequence of hMSH3 (recombinant, subunit of purified hMutSβ) (P20585 whole entry): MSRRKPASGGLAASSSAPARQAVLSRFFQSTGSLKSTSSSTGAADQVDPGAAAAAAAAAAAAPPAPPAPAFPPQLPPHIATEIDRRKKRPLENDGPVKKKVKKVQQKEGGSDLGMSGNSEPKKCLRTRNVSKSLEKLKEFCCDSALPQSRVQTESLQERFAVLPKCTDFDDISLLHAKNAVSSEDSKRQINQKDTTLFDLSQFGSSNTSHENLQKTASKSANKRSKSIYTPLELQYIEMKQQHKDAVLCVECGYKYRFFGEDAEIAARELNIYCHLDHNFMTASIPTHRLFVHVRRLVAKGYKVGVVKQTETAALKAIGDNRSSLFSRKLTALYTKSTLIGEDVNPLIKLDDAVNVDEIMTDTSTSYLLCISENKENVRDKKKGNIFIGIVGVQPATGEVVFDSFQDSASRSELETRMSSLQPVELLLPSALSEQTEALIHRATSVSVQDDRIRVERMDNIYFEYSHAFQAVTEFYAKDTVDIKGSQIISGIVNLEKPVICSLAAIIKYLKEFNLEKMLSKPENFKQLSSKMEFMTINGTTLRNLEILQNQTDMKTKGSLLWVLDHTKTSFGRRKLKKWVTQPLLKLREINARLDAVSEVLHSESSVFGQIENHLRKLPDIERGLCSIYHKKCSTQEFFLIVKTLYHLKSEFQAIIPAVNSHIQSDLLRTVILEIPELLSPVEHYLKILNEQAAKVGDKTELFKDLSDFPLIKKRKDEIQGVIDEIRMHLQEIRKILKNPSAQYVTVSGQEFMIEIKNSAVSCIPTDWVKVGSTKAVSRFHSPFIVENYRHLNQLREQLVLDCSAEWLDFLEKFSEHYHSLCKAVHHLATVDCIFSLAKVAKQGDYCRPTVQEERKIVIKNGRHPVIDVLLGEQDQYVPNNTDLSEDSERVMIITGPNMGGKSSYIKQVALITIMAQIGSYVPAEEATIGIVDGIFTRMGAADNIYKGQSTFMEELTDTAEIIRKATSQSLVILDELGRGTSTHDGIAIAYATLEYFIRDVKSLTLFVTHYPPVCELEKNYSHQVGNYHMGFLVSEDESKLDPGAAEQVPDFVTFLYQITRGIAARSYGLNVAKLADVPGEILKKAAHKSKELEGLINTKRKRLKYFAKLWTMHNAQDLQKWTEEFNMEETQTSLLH

| Binder | binding result [1] | binding result [2] | binding result [3] |
| --- | --- | --- | --- |
| GST-hRad1 (natural protein, human, UniProt O60671 1-282, looked up) MPLLTQQIQDEDDQYSLVASLDNVRNLSTILKAIHFREHATCFATKNGIKVTVENAKCVQANAFIQAGIFQEFKVQEESVTFRINLTVLLDCLSIFGSSPMPGTLTALRMCYQGYGYPLMLFLEEGGVVTVCKINTQEPEETLDFDFCSTNVINKIILQSEGLREAFSELDMTSEVLQITMSPDKPYFRLSTFGNAGSSHLDYPKDSDLMEAFHCNQTQVNRYKISLLKPSTKALVLSCKVSIRTDNRGFLSLQYMIRNEDGQICFVEYYCCPDEEVPESES | binds |  |  |
| GST-hHus1 (natural protein, human, UniProt O60921 1-280, looked up) MKFRAKIVDGACLNHFTRISNMIAKLAKTCTLRISPDKLNFILCDKLANGGVSMWCELEQENFFNEFQMEGVSAENNEIYLELTSENLSRALKTAQNARALKIKLTNKHFPCLTVSVELLSMSSSSRIVTHDIPIKVIPRKLWKDLQEPVVPDPDVSIYLPVLKTMKSVVEKMKNISNHLVIEANLDGELNLKIETELVCVTTHFKDLGNPPLASESTHEDRNVEHMAEVHIDIRKLLQFLAGQQVNPTKALCNIVNNKMVHFDLLHEDVSLQYFIPALS |  | binds | binds |
| GST-hRad9 (natural protein, human, UniProt Q99638 1-391, looked up) MKCLVTGGNVKVLGKAVHSLSRIGDELYLEPLEDGLSLRTVNSSRSAYACFLFAPLFFQQYQAATPGQDLLRCKILMKSFLSVFRSLAMLEKTVEKCCISLNGRSSRLVVQLHCKFGVRKTHNLSFQDCESLQAVFDPASCPHMLRAPARVLGEAVLPFSPALAEVTLGIGRGRRVILRSYHEEEADSTAKAMVTEMCLGEEDFQQLQAQEGVAITFCLKEFRGLLSFAESANLNLSIHFDAPGRPAIFTIKDSLLDGHFVLATLSDTDSHSQDLGSPERHQPVPQLQAHSTPHPDDFANDDIDSYMIAMETTIGNEGSRVLPSISLSPGPQPPKSPGPHSEEEDEAEPSTVPGTPPPKKFRSLFFGSILAPVRSPQGPSPVLAEDSEGEG | binds |  |  |
